Measured values: the DeepSol protein solubility set

Experiment: soluble on expression in E. coli; label from the status in PepcDB or PDB records

Row | Sequence | soluble on expression in E. coli
1 | MSFDGFFLHHIVEELRSELVNGRIQKINQPFEQELVLQIRSNRQSHRLLLSAHPVFGRIQLTQTTFENPAQPSTFIMVLRKYLQGALIESIEQVENDRIVEITVSNKNEIGDHIQATLIIEIMGKHSNILLVDKSSHKILEVIKHVGFSQNSYRTLLPGSTYIAPPSTKSLNPFTIKDEKLFEILQTQELTAKNLQSLFQGLGRDTANELERILVSEKLSAFRNFFNQETKPCLTETSFSPVPFANQVGEPFANLSDLLDTYYKDKAERDRVKQQASELIRRVENELQKNRHKLKKQEKELLATDNAEEFRQKGELLTTFLHQVPNDQDQVILDNYYTNQPIMIALDKALTPNQNAQRYFKRYQKLKEAVKYLTDLIEETKATILYLESVETVLNQAGLEEIAEIREELIQTGFIRRRQREKIQKRKKLEQYLASDGKTIIYVGRNNLQNEELTFKMARKEELWFHAKDIPGSHVVISGNLDPSDAVKTDAAELAAYFSQGRLSNLVQVDMIEVKKLNKPTGGKPGFVTYTGQKTLRVTPDSKKIASMKKS | not soluble
2 | MSFDKQNLIWIDLEMTGLDPEKERIIEIATIVTDKNLNILAEGPVLAVHQSDELLNKMNDWCQKTHSENGLIERIKASKLTERAAELQTLDFLKKWVPKGASPICGNSIAQDKRFLVKYMPDLADYFHYRHLDVSTLKELAARWKPEILEGFKKENTHLALDDIRESIKELAYYREHFMKLDLEHHHHHH | soluble
3 | MSFFKKLAASAGIGAAKVDTILEKDAYFPGEEVQGTVHVKGGKIAQDIRYIDLQLSTRYVIVKDDEEHRKYATIHSFRVTGSFTIQPGEEHQFPFTFTLPLDTPITVGKVEVAVVTDLDIQGGIDKSDHDRIFVEAHPWIENVLEAIENLGFRLNEADCEQAPYFQRRFPFVQEFEFVPTSGYYRQMLDELELIFLLGEDGLEIIFEVDRRARGLRGWLEEMYNDGEQLVRVRFSQSELEDAEELEEVLEEILDQYVE | soluble
4 | MSFLSNSLNRISFNSFSNMHSLLSSKFQEHYNDIYDWNGNIENIYKANTFISIGYKLLYPLGVLEANFDKEKLKKFLFRICSYYNDIPYHTSLHAAQVAHFSKSMLFMLDMNHKISAIDEFCLHISSLCHDTGHPGLNNYFLINSENNLALTYNDNSVLENYHCSLLFKTLKNPNYNIFEHYPYHIFISCKKNIIKAILSTDMKNHFEYISDFRTSKEFIDYDNLSNDQIWQIFCLILKASDIGHSTLEWNKHLEWTLKINEEFYLQGLLEKSLNIQNSFLCDINTMNKLALSQIDFLKHLCIPLFNELNYICKNNDVYTHCIQPIENNIERWESHKNDNQNLGLHEKYKEENLLSKLELIKFE | not soluble
5 | MSFSERLLAAWYQGHPALALLRPLEALYRRVANGRRADFLSGRKPAYRAPLPVLVVGNITVGGTGKTPMILWMIEHCRARGLRVGVISRGYGARPPTTPWRVRAEQDAAEAGDEPLMIVRRSGVPLMIDPDRPRALQALLAEEQLDLVLCDDGLQHYRLARDLELVLIDAARGLGNGRCLPAGPLREPAERLESVDALLYNGADEDPDGGYAFRLQPTALINLQSGERRPLEHFPAGQEVHALAGIGNPQRFFRTLEALHWRAIPHAFPDHATYTAAELAFSPPLPLLMTEKDAVKCRAFAAADWWYLAVDAVPSPAFVAWFDARLEH | not soluble
6 | MSFTDNWSDEEFIRQMKELIGNEGDMHVTCNHSEGEQVTETHVTREKALWYRHNGDREGMLVCLNLSRVEVLNQRYFLGPCPF | not soluble
7 | MSGCDAWEGDCCSRRCGAQDKEHPRYLIPELCKQFYHLGWVTGTGGGISLKHGDEIYIAPSGVQKERIQPEDMFVYDINEKDISGPSPSKKLKKSQCTPLFMNAYTMRGAGAVIHTHSKAAVMATLLFPGREFKITHQEMIKGIKKCTSGGYYRYDDMLVVPIIENTPEEKDLKDRMAHAMNEYPDSCAVLVRRHGVYVWGETWEKAKTMCECYDYLFDIAVSMKKVGLDPSQLPVGENGIV | soluble
8 | MSGEPELIELRELAPAGRAGKGRTRLERANALRIARGTACNPTRQLVPGRGHRFQPAGPATHTWCDLCGDFIWGVVRKGLQCARLSADCKFTCHYRCRALVCLDCCGPRDLGWEPAVERDTNVDEPVEWETPDLSQAEIEQKIKEYNAQINSNLFMSLNKDGSYTGFIKVQLKLVRPVSVPSSKKPPSLQDARRGPGRGTSVRRRTSFYLPKDAVKHLHVLSRTRAREVIEALLRKFLVVDDPRKFALFERAERHGQVYLRKLLDDEQPLRLRLLAGPSDKALSFVLKENDSGEVNWDAFSMPELHNFLRILQREEEEHLRQILQKYSYCRQKIQEALHACPLGLEHHHHHH | not soluble
9 | MSGFSTEERAAPFSLEYRVFLKNEKGQYISPFHDIPIYADKDVFHMVVEVPRWSNAKMEIATKDPLNPIKQDVKKGKLRYVANLFPYKGYIWNYGAIPQTWEDPGHNDKHTGCCGDNDPIDVCEIGSKVCARGEIIGVKVLGILAMIDEGETDWKVIAINVDDPDAANYNDINDVKRLKPGYLEATVDWFRRYKVPDGKPENEFAFNAEFKDKDFAIDIIKSTHDHWKALVTKKTNGKGISCMNTTLSESPFKCDPDAARAIVDALPPPCESACTVPTDVDKWFHHQKN | soluble
10 | MSGIAAGRLAEERKHWRKDHPFGFIAKPVKNADGTLNLFNWECAIPGRKDTIWEGGLYRIRMLFKDDFPSTPPKCKFEPPLFHPNVYPSGTVCLSLLDENKDWKPSISIKQLLIGIQDLLNHPNIEDPAQAEAYQIYCQNRAEYEKRVKKEAVKYAAELVQKQMLE | not soluble
11 | MSGILALGAYVPERVMTNADFEAYLDTSDEWIVTRTGIKERRVAAEDEYTSDLAFKAVEDLLRRHPGALEGVDAVIVATNTPDALFPDTAALVQARFGLKAFAYDLLAGCPGWIYALAQAHALVEAGLAQKVLAVGAEALSKIIDWNDRATAVLFGDGGGAAVVGKVREGYGFRSFVLGADGTGAKELYHACVAPRLPDGTSMKNRLYMNGREVFKFAVRVMNTATLEAIEKAGLTPEDIRLFVPHQANLRIIDAARERLGLPWERVAVNVDRYGNTSTASIPLALKEALDAGRIREGDHVLLVSFGAGLTWAAAVLTWGGA | soluble
12 | MSGLKPVKPEGVQSEFSVRVAKRSDDIRYSVMMFNGMDKVDTSKWTIDSGVTMEREDNQRVILSTQTVQEYGEGSEYGKAAREEARRKKYGRQSKKYRLDNQPWKMAFTEPEGRQRQMRGIREGGANEHADYWVFLKPNQSSEFKAYKVDEWHKFLPAITHKTLDIDQAEEQFSQRYKVMNQFALKAAIQNQLSATDESEMTEQQKRLLKIKDEASSDDSDGDDEGEGGDDGKKAKNKKKKKKNAKPAKEKRQRVEDKDDVAKYESSDGEDEGREYDYISDSGTDSDREQVPSDEKIEKQLVGVAEEEGARESDSSESEDDLTKKLMKPYGDKKKGNDIEERDSSGTDSDVSDTEKLDSVVFMKANKDGEGGSGGTGKKRPPTEDSDLKMDNLGPSDAKKAKPAVKFEEGLNEETVRRYLRRKPHTTKELLHKMNGKCGNMSKSEMVTQLASILKAIEPNQSRQLKGKKEVLFFSLVNTIA | not soluble
13 | MSGNIGANPAIIKLSWIEAAVDAHKTLNFEPSGRKRIGFDVADSGTDKCANVYRHGSVVFWADEWKAKEDELLKSCQRTYQAALEREADIVYDSIGVGASAGAKFSEINADRKSENAYARRVNYQRFNAGAGVHEPDDEYNGIPNKDFFANLKAQAWWLTVSEIRLTPLTTENSILWMS | not soluble
14 | MSGRLTGKVALVSGGARGMGASHVRAMVAEGAKVVFGDILDEEGKAMAAELADAARYVHLDVTQPAQWKAAVDTAVTAFGGLHVLVNNAGILNIGTIEDYALTEWQRILDVNLTGVFLGIRAVVKPMKEAGRGSIINISSIEGLAGTVACHGYTATKFAVRGLTKSTALELGPSGIRVNSIHPGLVKTPMTDWVPEDIFQTALGRAAEPVEVSNLVVYLASDESSYSTGAEFVVDGGTVAGLAHNDFGAVEVSSQPEWVT | soluble
15 | MSHHHHHHSQGGPQDHVEIIPLGGMGEIGKNITVFRFRDEIFVLDGGLAFPEEGMPGVDLLIPRVDYLIEHRHKIKAWVLTHGHEDHIGGLPFLLPMIFGKESPVPIYGARLTLGLLRGKLEEFGLRPGAFNLKEISPDDRIQVGRYFTLDLFRMTHSIPDNSGVVIRTPIGTIVHTGDFKLDPTPIDGKVSHLAKVAQAGAEGVLLLIADATNAERPGYTPSEMEIAKELDRVIGRAPGRVFVTTFASHIHRIQSVIWAAEKYGRKVAMEGRSMLKFSRIALELGYLKVKDRLYTLEEVKDLPDHQVLILATGSQGQPMSVLHRLAFEGHAKMAIKPGDTVILSSSPIPGNEEAVNRVINRLYALGAYVLYPPTYKVHASGHASQEELKLILNLTTPRFFLPWHGEVRHQMNFKWLAESMSRPPEKTLIGENGAVYRLTRETFEKVGEVPHGVLYVDGLGVGDITEEILADRRHMAEEGLVVITALAGEDPVVEVVSRGFVKAGERLLGEVRRMALEALKNGVREKKPLERIRDDIYYPVKKFLKKATGRDPMILPVVIEG | soluble
16 | MSHHRSAFFISDRTGITAESLGHTLLTQFDALDFQRETVPFVDTVEKARALAERISEIAERDHLRPLVFTSIVNPEVREALRLNNVVLIDFFESFIGHLEIELGQKATLTVGKAHGMVNEEKYDHRIEAVNFSLNHDDGVKLKDLHEADVILVGVSRSGKTPTCLYLALQYGIRAANYPLTPEDLGSPTLPKMLLPFKDKMFGLTIDPNRLHHIRSERRPDSKYASMDNCRREVNEAESMFRHHGVPFISTTHKSIEEIASTIMHKAALGRKFLEHHHHHH | soluble
17 | MSHSVPNALMTGADYLDSLRDGRQVYLNGERVADVTRHRAFRNACRSIAGLYDGLHGEQRDVLTRVDAQGRRSHRFFTPAQNAEDLLGAREAIGCWSRMTYGFMGRTPDYKAAFMSGLEAGAGFYGDYRHNACAWHRAFADRGLFLNHAIINPPLDRSKAIHEMRDVFVHVERETDQGIVVSGAKMLATGSAITNATFVAPVASAQMEAGKAEDFAVVFFARMDNPGLRLMCRPSYEERASSPFDYPLSSRFDENDSVLLFDKALIPWEDVLVYRDLRRATGFYAESGFANLYNFQSGIRLGVKLELMIGLLSLGVRANGTQSFRGIQAALGELIALQHLLQALTTAMARDPERNAAGSAVPRLEYANALRIQVPQIWKRVRELLESALGGAPLVTVSGAADLRDGEARRLVDSYYRGAELEPEQRLKLFKLIWDATGSEFGARHAVYESHYSGNAEQIRLDSLAWASRRGHLAYCEAMVQRCMADYDIHGWLRGPWQHD | not soluble
18 | MSIAIKDDDEFKTIFAEKKTQPVILFFTASWCGPCQMIKPRVEELAAEHKDRLSILKIDVDECDGVGEEYEINSMPTFLLIVDGIKKDQFSGANNTKFEEMVKAALQ | not soluble
19 | MSILEKIFKTRKDITYMLDLDMIEDLSQQAYVKRLAIDSCIEFVARAVAQSHFKVLEGNRIQKNDVYYKLNIKPNTDLSSDSFWQQVIYKLIYDNEVLIVVSDSKELLIADSFYREEYALYDDIFKDVTVKDYTYQRTFTMQEVIYLKYNNNKVTHFVESLFEDYGKIFGRMIGAQLKNYQIRGILKSASSAYDEKNIEKLQAFTNKLFNTFNKNQLAIAPLIEGFDYEELSNGGKNSNMPFSELSELMRDAIKNVALMIGIPPGLIYGETADLEKNTLVFEKFCLTPLLKKIQNELNAKLITQSMYLKDTRIEIVGVNKKDPLQYAEAIDKLVSSGSFTRNEVRIMLGEEPSDNPELDEYLITKNYEKANSGENDEKEKDENTLKGGDEDESGD | not soluble
